According to publication PMC10053369, “Recombinant Analogs of Sea Anemone Kunitz-Type Peptides Influence P2X7 Receptor Activity in Neuro-2a Cells” (Marine Drugs, 2023):
Positions of bridges follow the written chain, without caps; N, C: chain ends. No end group written: not given here.

Columns and labels:
[1] = biological target: T1, hP2X7 (47-334 a.a., extracellular domain, 36.8 kDa) (human) (UniProt Q99572)
T1 sequence: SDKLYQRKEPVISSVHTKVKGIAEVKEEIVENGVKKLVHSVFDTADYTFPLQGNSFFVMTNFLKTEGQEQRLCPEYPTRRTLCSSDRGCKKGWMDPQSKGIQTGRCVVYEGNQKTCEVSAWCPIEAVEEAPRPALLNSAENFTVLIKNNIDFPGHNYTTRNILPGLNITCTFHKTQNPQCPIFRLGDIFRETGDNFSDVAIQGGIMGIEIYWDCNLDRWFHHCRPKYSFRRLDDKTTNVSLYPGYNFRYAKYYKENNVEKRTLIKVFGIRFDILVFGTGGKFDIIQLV

[2] = biological target: T1, hP2X7 (47-334 a.a., extracellular domain, 36.8 kDa) (human); remark: listed apart in the source
[3] = biological target: T1, hP2X7 (47-334 a.a., extracellular domain, 36.8 kDa) (human); assay: SPR; Biacore 3000, hP2X7 extracellular domain amine-coupled to a CM5 chip (12300 RU), peptides 5-100 uM injected as analytes at 10 uL/min for 6 min, 25 °C, HBS-N (10 mM HEPES, 150 mM NaCl, pH 7.4); fitted with 1:1 Langmuir or two-state (conformational change) model; set-up: kon2 (two-state model, step CP to CP*): unit not given here
[4] = test system: cultured neurons of the dorsal horn of the spinal cord; settings: cited from earlier work
Excerpt: Activated P2X7 has also been reported to alter reactive oxygen species (ROS) in microglia/macrophages as was shown, for example, in primary rat microglial cells. In cultured neurons of the dorsal horn of the spinal ...

Neuro-2a cells [5] = assay: [Ca2+]i in Ca2+-free medium (Fluo-8 AM); assay type: cell-based, mouse; settings: for [Ca2+]i in Ca-free medium: ionomycin 10 μM in the presence of ATP 1 mM, or BHQ 50 μM, n = 6
Method: (§1) Neuro-2a cells were seeded in 96-well plates at a density of 4 × 10^4 cells/well and incubated in DMEM for 24 h at 37 °C, 5% CO2. Then the cells were washed twice with culture medium and loaded with 5 μM Fluo-8 AM (Abcam, Cambridge, UK) dye and 1 μM Pluronic® F-127 (Sigma-Aldrich, St. Louis, MO, USA), and incubated for 40 min at 37 °C in HBSS: 140 mM NaCl, 5 mM KCl, 0.8 mM MgCl2, 2 mM CaCl2, 10 mM glucose, 10 mM HEPES, pH 7.4. Then the cells were washed two times with the same solution but without the fluorescent dye and treated with the studied peptides for 30 min at RT in the dark. In some experiments Ca^2+-free medium was used: 140 mM NaCl, 5 mM KCl, 0.8 mM MgCl2, 10 mM glucose, 10 mM HEPES, 5 mM EGTA, pH 7.4. ATP (1 mM final concentration) was added using a microinjector (20 μL/well) 10 s later the baseline recording and the readings were taken up to 50 s in 1 s intervals. The standard P2X7 inhibitor, A438079 (Sigma-Aldrich, St. Louis, MO, USA), was used as inhibitory control. Ionomycin (Sigma-Aldrich, St. Louis, MO, USA) and BHQ were used to generate a generic calcium signal in cells. 2,5,-di(t-butyl) hydroquinone (BHQ) was synthesized and kindly provided by Dr. Polonik S.N. (PIBOC FEBRAS). Fluo-8 was excited at 485 nm, and the emission at 520 nm was measured with a PHERAstar®FS plate reader (BMG LABTECH, Ortenberg, Germany). The data were processed by MARS Data Analysis v. 3.01R2 (BMG Labtech, Ortenberg, Germany). Mean values and standard error of peak height calcium were calculated.
The following supporting information can be downloaded at: https://www.mdpi.com/article/10.3390/md21030192/s1, Figure S1: The RP-HPLC elution profiles of Kunitz peptides: HCRG1 (a), HCRG2 (b), and HCRG7 (c), on a Jupiter C4 column (Phenomenex, USA), equilibrated by 0.1% TFA, in a gradient of acetonitrile concentration (0–70%) for 70 min at 1.5 mL/min. MALDI mass spectra of the average molecular weight of peptides are shown in the insert. Black solid lines accentuate fractions from which the peptides were isolated. Figure S2: 1H NMR spectra of HCRG1 (a) and HCRG7 (b). Figure S3. […]

[6] = biological target: T2, hP2X7 (47–334 a.a., extracellular domain, 36.8 kDa) (Homo sapiens, UniProt Q99572); assay: Surface plasmon resonance (Biacore 3000); assay type: binding; settings: model: binding 1:1 (Langmuir), 25 °C, HBS-N pH 7.4, n = 3
T2 construct: hP2X7 (47–334 a.a., extracellular domain, 36.8 kDa); purchased Abbexa LTD, Cambridge, UK abx167020
T2 sequence (Q99572 47-334): T1 sequence
Method: SPR analysis was performed at 25 °C using a Biacore® 3000 optical biosensor (GE Healthcare, Chicago, IL, USA) and CM5 sensor chips. HBS-N (10 mM HEPES, 150 mM NaCl, pH 7.4) (Cytiva, Chicago, IL, USA) was used as a working buffer for the immobilization of hP2X7 (47–334 a.a., extracellular domain, 36.8 kDa) (abx167020 Abbexa LTD, Cambridge, UK). The carboxyl groups of the dextran biosensor chip were activated for 5 min by introducing a 1:1 mixture of 0.2 M 1-ethyl-3-(3-dimethylaminopropyl)carbodiimide hydrochloride (EDC) and 0.05 M N-hydroxysuccinimide (NHS) at a rate of 5 µL/min followed by a 1 min wash with HBS-N buffer at the same flow rate. Next, hP2X7 (15 μg/mL) in 10 mM sodium acetate (pH 5.0) was injected into the working channel of the biosensor for 10 min at a flow rate of 5 μL/min. The final level of immobilization was 12300 RU (12.3 ng of protein). The control channel without immobilized P2X7R was used to correct the effects of the nonspecific binding of analytes to the chip surface.
Lyophilized peptides were prepared as 100 μM stock solutions in HBS-N buffer. Experimental peptide samples were prepared in the range of 5–100 μM. The samples were injected through the channels of the biosensor (working and reference) at a flow rate of 10 μL/min for 6 min. The dissociation of the formed peptide/P2X7 complexes was recorded for at least 6 min from the moment of injection at the same flow rate after the injection of the sample. After each cycle of the biosensor, the bound analyte was removed by double injection of the regenerating solution (2 M NaCl, 1% CHAPS) at a flow rate of 30 μL/min for 30 s.
SPR sensorgrams were processed in Biacore 3000 Evaluation Software v.1.0 (GE Healthcare, Chicago, IL, USA) and BIAevaluation Software v. 4.1.1 (GE Healthcare, Chicago, IL, USA) using “1:1 binding (Langmuir)” and “two-state binding (conformational change)” data processing models.
The 1:1 (Langmuir) binding model is a 1:1 interaction model between a compound (C) and an immobilized protein (P) and is equivalent to the Langmuir isotherm for surface adsorption: C + P ↔ CP.
The two-state binding (conformational change) model describes the 1:1 binding of a compound (C) to an immobilized protein (P) followed by a conformational change in the complex (CP ↔ CP*). It is assumed that the conformationally changed complex can dissociate only by the reverse conformational change: C + P ↔ CP ↔ CP*. The final kinetic parameters were obtained from the models that best agree with the experimental curves for the minimum of the obtained value of chi2. The equations describing the models used are as follows: • (1) 1:1 (Langmuir) binding: Kd = koff/kon, where Kd is the equilibrium dissociation constant, koff is the dissociation rate constant, kon is the association rate constant. • (2) Reaction of two states (with conformational change): Kd = koff1/kon1 × (1 + kon2/koff2) − 1, where Kd is the equilibrium dissociation constant, koff1 is the dissociation rate constant, kon1 is the association rate constant, kon2 is the direct association rate constant for the CP ↔ transition CP*, koff2 is the inverse dissociation rate constant for the CP ↔ CP* transition.
The model describing the interaction was chosen according to the lowest chi2 parameter’s value. Chi2 is a measure of the average squared residual between the experimental data and the fitted curve.

Neuro-2a cells [7] = assay: Cytoprotection against ATP-induced cell death (MTT assay); assay type: cell-based, mouse; settings: 4 mM ATP, 48 h
Method: (§2) Neuro-2a neuroblastoma cells (ATCC® CCL-131™) were obtained from American Type Culture Collection (Manassas, VA, USA). The cells were cultivated in DMEM medium (BioloT, St. Petersburg, Russia) supplemented with 10% of fetal bovine serum (BioloT, St. Petersburg, Russia) and 1% penicillin/streptomycin (BioloT, St. Petersburg, Russia) at 37 °C and 5% CO2. Initially, cells were incubated in cultural flasks until sub-confluent (~80%). For testing, Neuro-2a cells were seeded in 96-well plates and experiments were started after 24 h.
The cytoprotective effect of peptides was assessed in Neuro-2a cells using the MTT assay. In brief, an aliquot (180μL) of cell suspension with a nominal cell density of 3 × 10^4 cells/well was dispensed into 96-well plates. The cells were incubated for 24 h in a humidified atmosphere containing 5% CO2 to allow cell attachment. At the end of the preincubation period, ATP (Sigma-Aldrich, St. Louis, MO, USA) was added to the cells at a concentration of 4 mM. Studied peptides were added to the cells at concentrations of 0.1, 1.0 or 10.0 μM for 1h prior to the addition of ATP. After incubation for 48 h at 37 °C cell viability was detected using the MTT as described previously. The standard P2X7 inhibitor, A438079 (Sigma-Aldrich, St. Louis, MO, USA), at a concentration of 10 μM was used as a positive control.
(§3) All data were obtained in three independent replicates and calculated values were expressed as mean ± standard error of the mean (SEM). The Student’s t-test was performed using SigmaPlot 14.0 (Systat Software Inc., San Jose, CA, USA) to determine statistical significance.

P2X7 in Neuro-2a cells = assay: ATP-induced Ca2+ influx (Fluo-8 AM); assay type: cell-based, mouse; settings: 1 mM ATP
Method: as §2, §1, §3

With HCGS1.36 (peptide) the 4 mM ATP-induced uptake of YO-PRO-1 by mouse Neuro-2a cells (P2X7 macropore), peptide 0.01-10 uM pre-incubated 10 min; dye uptake reduced to the printed percent [1] was 47.8% and the decrease of the 1 mM ATP-induced rise in intracellular Ca2+ (Fluo-8AM) in mouse Neuro-2a cells with endogenous P2X7, peptide 0.1-1 uM pre-incubated 30 min [2] was 53.9%.

Work on HCRG1 (peptide) yielded a koff1 (two-state model, step CP to C + P) [3] of 0.0437 c^−1, a koff2 (two-state model, step CP* to CP) [3] of 0.0015 c^−1 and a kon1 (two-state model, step C + P to CP) [3] of 920 mole^−1c^−1. It also gave a kon2 (two-state model, step CP to CP*) [3] of 0.0085 and a decrease of the 1 mM ATP-induced rise in intracellular Ca2+ (Fluo-8AM) in mouse Neuro-2a cells with endogenous P2X7, peptide 0.1-10 uM pre-incubated 30 min; value at 0.1 uM [2] of 57.5%.

In the case of `CC(C)(C)[N+]([O-])=Cc1ccccc1` [N-tert-butyl-α-phenylnitrone], the “ATP or Bz-ATP-induced ROS production” value [4] is listed as “eliminated”.

With `CC(C)(C)c1cc(O)c(C(C)(C)C)cc1O` [BHQ, 2,5,-di(t-butyl) hydroquinone] the “[Ca2+]i in Ca-free medium” value (Neuro-2a cells [5]) was “led to a significant increase in [Ca^2+]I”.

In the case of “GSICLEPKVVGPCTAYLRRFYFDSETGKCTPFIYGGCEGNGNNFETLRACRAICRA (disulfide 4-54, 13-37, 29-50) [HCGS1.10]”, the Kd [6] is reported as 26.3 µM, the koff ([6]; same value printed under koff1 and koff2, average ± SD) is reported as “(4.5 ± 0.52) × 10^−3 c^−1” and the kon ([6]; same value printed under kon1 and kon2, average ± SD) is reported as “(1.71 ± 0.19) × 10^2 mole^−1c^−1”.

For `C[C@H](CCC(=O)O)C[C@H](C)C[C@H](C)C(=O)/C=C(\O)[C@H](C)C[C@H](C)C/C=C/[C@@H](C)[C@@H](O)[C@@H](C)[C@@H](O)C[C@@H]1CC[C@@](C)([C@H]2CC[C@@](C)([C@@H](C)O)O2)O1` [ionomycin], the “[Ca2+]i in Ca-free medium” value (Neuro-2a cells [5]) was “led to a significant increase in [Ca^2+]I”.

Molecule HCGS1.19 (peptide) has a 4 mM ATP-induced uptake of YO-PRO-1 by mouse Neuro-2a cells (P2X7 macropore), peptide 0.01-10 uM pre-incubated 10 min; dye uptake reduced to the printed percent [1] of 56.2% and a decrease of the 1 mM ATP-induced rise in intracellular Ca2+ (Fluo-8AM) in mouse Neuro-2a cells with endogenous P2X7, peptide 0.1-1 uM pre-incubated 30 min [2] of 54.8%.

With HCGS1.10 (peptide) the decrease of the 1 mM ATP-induced rise in intracellular Ca2+ (Fluo-8AM) in mouse Neuro-2a cells with endogenous P2X7, peptide 0.1-10 uM pre-incubated 30 min; value at 0.1 uM [2] was 43.8%.

With `Nc1ncnc2c1ncn2[C@@H]1O[C@H](COP(=O)(O)OP(=O)(O)OP(=O)(O)O)[C@@H](O)[C@H]1O` [ATP, adenosine triphosphate, reference compound] the “increase in percentage of dead cells vs cells without ATP” value (Neuro-2a cells [7]) was “up to 40%”, the “intracellular Ca2+ after ATP” value (P2X7 in Neuro-2a cells) was “strong sustained increase in [Ca^2+]I” and the “[Ca2+]i response to ATP in Ca2+-free medium” value (Neuro-2a cells [5]; 1 mM ATP, Ca2+-free medium) was “did not cause an increase in [Ca^2+]I”.

B1: APHC3 (peptide)
chain: GSICLEPKVVGPCTAYFPRFYFNSETGKCTPFIYGGCEGNGNNFETLRACRGICRA
B1 gave a decrease of the 1 mM ATP-induced rise in intracellular Ca2+ (Fluo-8AM) in mouse Neuro-2a cells with endogenous P2X7, peptide 0.1-10 uM pre-incubated 30 min; value at 0.1 uM [2] of 53.2%.
